Results from patent US20220380455A1 (Alector, published 2022).
Positions count from the first letter of the chain named. Values joined by “and” are separate entries in the source; they are usually repeats but may differ in a detail not shown here. Equal entries are not always repeated. Blank lines part the entries; values can stand above or below the binder they belong to.

Assays:
MS4A6A ECL2 peptide = target: T1, MS4A6A ECL2 peptide (human); experiment: array SPR (Carterra MX-96), antibody captured on anti-mouse IgG-Fc, ECL2 peptide injected
T1 construct: also called MS4A6A ECL-2 peptides
T1 peptide: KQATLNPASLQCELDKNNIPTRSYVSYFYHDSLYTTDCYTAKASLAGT
Description: Binding kinetic characterization of the purified antibodies to MS4A6A ECL1 and ECL2 peptides was performed by Carterra (South San Francisco, Calif.) using a proprietary array Surface Plasmon Resonance (SPR) instrument (MX-96) as follows. Antibodies were printed onto a CMD5OOD chip (Xantec #SPMX CMD500D lot #SC CMD500D0117.a Exp. 31.12.18) using the Continuous Flow Microspotter (CFM). First, the chip was activated with 100 mM MES pH 5.5, 100 μL EDC (133 mM final), 100 μL of S-NHS (33.3 mM final), for 7 minutes. A lawn of anti-mouse IgG-Fc (Jackson ImmunoResearch CAT #115-005-071 lot#130410) was injected for 15 minutes to establish a surface density of 10000-12000 RU, after which the chip surface was deactivated with 1 M ethanolamine at pH 8.5 for 10 minutes. Anti-MS4A6A antibodies in question, in the form of hybridoma supernatants diluted 2:1 with HBS-EP+buffer (Teknova CAT #H8022), were then printed as duplicates with a 20 minute and a 5 minutes print from the same sample solution. Control antibodies were diluted to 20 μ/ml for printing.
To perform kinetic analysis, the peptides in question were prepared in HBS-EP+buffer with lmg/ml BSA at final assay concentrations of 2000 nM, 400 nM, 80 nM, 16 nmM, and 3.2 nM. These were then injected on the chip for five minutes, followed by a seven-minute dissociation period at 8 uL per second in a non-regenerative kinetic series. Duplicate measurements for each anti-MS4A6A antibody were taken to ensure reproducibility.
Kₐ (association rate constant; Kₒₙ), Kd (dissociation rate constant; Koff) and KD (equilibrium constant) to MS4A6A ECL-2 peptides were calculated for each of the 23 anti-MS4A6A antibodies tested, the results of which are shown below in Table 5 (clones that bound too weakly to determine these values are denoted as N/A in Table 5).

cynomolgus (cyno) MS4A6A [1] = target: T2, cynomolgus (cyno) MS4A6A (cynomolgus, UniProt Q9H2W1 1-246 (human entry)); experiment: flow cytometry, hybridoma supernatant, HEK293 transfected with cyno MS4A6A over parental HEK293; Screen 2
T2 construct: Full-length protein expressed in transfected HEK293, U937 or K562 cells (flow cytometry)
T2 chain: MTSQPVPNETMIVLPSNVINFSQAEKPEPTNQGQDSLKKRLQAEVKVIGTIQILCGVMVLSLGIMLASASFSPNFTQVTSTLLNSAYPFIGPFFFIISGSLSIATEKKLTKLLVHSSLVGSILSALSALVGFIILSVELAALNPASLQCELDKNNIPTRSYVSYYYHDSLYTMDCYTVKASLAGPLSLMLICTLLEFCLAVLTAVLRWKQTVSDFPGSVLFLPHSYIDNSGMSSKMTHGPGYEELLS
Description: (§1) Positive clones were expanded and then rescreened for specificity against HEK293 cells overexpressing cyno MS4A6A and parental HEK293 cells. Briefly, previously prepared, cryopreserved transiently-transfected cells were labeled with LIVE/DEAD Fixable Aqua Dead Cell Stain Kit (ThermoFisher Scientific L34957) on ice for 30 minutes. After a wash with PBS, 2×10⁵ cells were aliquoted per well in 96-well round bottom plates and incubated with 50 μl of culture supernatant on ice for 30 mins. […] Following this secondary incubation, the cells were again washed twice with ice-cold FACS buffer and resuspended in a final volume of 200 μl of FACS buffer. Analysis was performed on a FACS Canto system (BD Biosciences), with sort gates drawn to exclude dead (Aqua-positive) cells. […] The screen was repeated twice, and the numbers reported here represent the ratio of mean fluorescence level in transfected cells over parental cells.

MS4A6A ECL1 peptide = target: T3, MS4A6A ECL1 peptide (human); experiment: peptide ELISA, hybridoma supernatant
T3 construct: the description elsewhere gives ECL1 as 68-84; Human and cyno ECL1 are said to be identical
T3 peptide: SASFSPNFTQVTSTLLNS
Description: Anti-MS4A6A hybridoma supernatants were tested for binding to MS4A6A peptides derived from ECL1 (amino acid residues 68-85 of human MS4A6A of SEQ ID NO:1) and ECL2 (amino acid residues 138-185 of human MS4A6A of SEQ ID NO:1) sequences, using an enzyme-linked immunosorbent assay (ELISA). Briefly, 96-well polystyrene plates were coated with 1-10 μg/mL of synthetic free or BSA-conjugated peptides in coating buffer (0.05M carbonate buffer, pH9.6, Millipore Sigma C3041) overnight at 4° C. Coated plates were then blocked with ELISA diluent (PBS+0.5% BSA+0.05% Tween20) for 1-hour, washed 3×300 μL in PBST (PBS+0.05% Tween20, Thermo 28352), and then the antibodies were added at various dilutions (100-1000×) in ELISA diluent. After 30 mins incubation (room temperature, with shaking), the plates were washed 3×300 μl in PBST. A secondary anti-mouse HRP antibody (Jackson Immunoresearch CAT #115-035-003) was added at a 1:1000 dilution in ELISA diluent (50 μL/well) and incubated for 30 minutes at room temperature with shaking. After a final set of washes (3×300 μl in PBST), 50 μL of TMB substrate (BioFx TMBW-1000-01) was added and the reaction was then quenched after 5-10 mins with 50 μL of stop solution (BioFx BSTP-1000-01). The quenched reaction wells were detected for absorbance at […] with a BioTek Synergy Microplate Reader using GENS 2.04 software.

cynomolgus (cyno) MS4A6A [2] = target: T2, cynomolgus (cyno) MS4A6A; experiment: flow cytometry, hybridoma supernatant, HEK293 transfected with cyno MS4A6A over parental HEK293; Screen 1
Description: as §1

Kd (MS4A6A ECL2 peptide): 76 nM and 86 nM
koff (MS4A6A ECL2 peptide): 0.00038 s⁻¹ and 0.00043 s⁻¹
kon (MS4A6A ECL2 peptide): 5000 M⁻¹ s⁻¹
ratio of APC MFI on MS4A6A+/HEK parental cells (cynomolgus (cyno) MS4A6A [1]): 8.4 ratio
binding result (MS4A6A ECL1 peptide): no binding
ratio of APC MFI on MS4A6A+/HEK parental cells (cynomolgus (cyno) MS4A6A [2]): 3.8 ratio
B1: 6A-15 (antibody, V domains shown)
VH: EVMLVESGGGLVKPGGSLKLSCAASGFTFSSHAMSWVRQTPEKRLEWVATISSGDSYTYYPDSVKGRFTISRDNAKNTLYLQMTSLRSEDTAMYYCIRHIYYGNLYYAMDYWGQGTSVTVSS
VL: DVLMTQTPLSLPVSLGDQASISCRSSQSIIHNNGNTYLEWYLQKPGQSPKLLIYKVSNRFSGVPDRFSGSGSGTYFTLKISRVEADDLGVYYCFQGSHVPWTFGGGTKLEIK
notes: Mouse hybridoma antibody, tested as hybridoma supernatant (mouse IgG, detected or captured via anti-mouse IgG Fc); also called anti-MS4A6A antibody 6A-15

ratio of APC MFI on MS4A6A+/HEK parental cells (cynomolgus (cyno) MS4A6A [1]): 61.7 ratio
binding result (MS4A6A ECL1 peptide): no binding
ratio of APC MFI on MS4A6A+/HEK parental cells (cynomolgus (cyno) MS4A6A [2]): 8.6 ratio
B2: 6A-11 (antibody, V domains shown)
VH: EVQLQQSGPDLVKPGASVKISCKASGYSFTGYYIHWVKQSHIKSLEWIGRINPNNGATNYNQIFKDKATLTVDRSSSTAYMDLHSLTSEDSAVYYCVSTFITGWGQGTTLTVSS
VL: B1 VL with M4L, S28T, I30V, N32S, N33D, K44R, Q47L, N58I, Y75D, D86E
notes: Mouse hybridoma antibody, tested as hybridoma supernatant (mouse IgG, detected or captured via anti-mouse IgG Fc); also called anti-MS4A6A antibody 6A-11

Kd (MS4A6A ECL2 peptide): 290 nM
koff (MS4A6A ECL2 peptide): 0.0011 s⁻¹
kon (MS4A6A ECL2 peptide): 3900 M⁻¹ s⁻¹
ratio of APC MFI on MS4A6A+/HEK parental cells (cynomolgus (cyno) MS4A6A [1]): 84 ratio
binding result (MS4A6A ECL1 peptide): no binding
ratio of APC MFI on MS4A6A+/HEK parental cells (cynomolgus (cyno) MS4A6A [2]): 12.6 ratio
B3: 6A-9 (antibody, V domains shown)
VH: EVQLQQSGPELVKPGASVKISCKASGYSFTGYYIHWVKESHVKSLEWIGRINPKNGVTSYNQNFKDKASLTVDRSSSTAYMDLYSLTSEDSAVYYCASTFITGWGQGTSLTVSS
VL: B1 VL with M4L, T7A, S28T, I30V, N32S, N33D, K55T, Y75D, D86E
notes: Mouse hybridoma antibody, tested as hybridoma supernatant (mouse IgG, detected or captured via anti-mouse IgG Fc); also called anti-MS4A6A antibody 6A-9

Kd (MS4A6A ECL2 peptide): 180 nM
koff (MS4A6A ECL2 peptide): 0.00049 s⁻¹
kon (MS4A6A ECL2 peptide): 2700 M⁻¹ s⁻¹
ratio of APC MFI on MS4A6A+/HEK parental cells (cynomolgus (cyno) MS4A6A [1]): 20.3 ratio
binding result (MS4A6A ECL1 peptide): no binding
ratio of APC MFI on MS4A6A+/HEK parental cells (cynomolgus (cyno) MS4A6A [2]): 4.1 ratio
B4: 6A-18 (antibody, V domains shown)
VH: B3 VH
VL: B1 VL with M4L, T7A, S28T, I30V, N32S, N33D, K55T, Y75D, D86E
notes: Mouse hybridoma antibody, tested as hybridoma supernatant (mouse IgG, detected or captured via anti-mouse IgG Fc); also called anti-MS4A6A antibody 6A-18

Kd (MS4A6A ECL2 peptide): 180 nM and 150 nM
koff (MS4A6A ECL2 peptide): 0.00097 s⁻¹ and 0.00049 s⁻¹
kon (MS4A6A ECL2 peptide): 5500 M⁻¹ s⁻¹ and 3400 M⁻¹ s⁻¹
ratio of APC MFI on MS4A6A+/HEK parental cells (cynomolgus (cyno) MS4A6A [1]): 28.5 ratio
binding result (MS4A6A ECL1 peptide): no binding
ratio of APC MFI on MS4A6A+/HEK parental cells (cynomolgus (cyno) MS4A6A [2]): 14.4 ratio
B5: 6A-16 (antibody, V domains shown)
VH: B3 VH with S109T, L110V
VL: B1 VL with M4L, T7A, S28T, I30V, N32S, N33D, K55T, Y75D, D86E
notes: Mouse hybridoma antibody, tested as hybridoma supernatant (mouse IgG, detected or captured via anti-mouse IgG Fc); also called anti-MS4A6A antibody 6A-16
